# According to patent US20240174744A1 (SCIRHOM, published 2024):
# Residue numbers refer to the chain shown, from its start.
# B1: antibody 34 (antibody, V domains shown)
# VH: QVTLKESGPGILQPSQTLSLTCSFSGFSLSTFSLGVGWIRQSSGKGLEWLAHIWWDDEKYYNPALKSRLTISKDTSKNQVFLKIANVDAADTATYYCARAYYSKSYYALDYWGQGTSVTVSS
# VL: DIQMTQSPSSLSASLGERVSLTCRASQEISGYLSWLQQKPDGTIKRLIYAASTLDSGVPKRFSGSRSGSDYSLAISSLESEDFADYYCLQYANFPFTFGSGTKLEIK
# notes: Mouse IgG, kappa light chain; also called clone #34; m34
# B2: antibody 22 (antibody, V domains shown)
# VH: QVTLKESGPGILQPSQTLSLTCSFSGFSLSTFGMGVGWIRQPSGKGLEWLAHIWWDDEKYYNSALKSRLTISKATSKNQVFLKIANVDTADTATYYCARISNYGSNYWYFNVWGTGTTVTVSS
# VL: QVVLTQSPALMSASPGEKVTMTCSAGSSVSYMYWYQQKPGSSPRVLIYDTSNLASGVPARFTGSGSGTSYSLTISRMEAEDAATYYCQQWNSYPLTFGAGTKLELK
# notes: Mouse IgG, kappa light chain; also called clone #22; m22
# B3: antibody 54 (antibody, V domains shown)
# VH: B2 VH with M34L, W49C, E58D, Y61S, S63P, A74D, T89S, Y96F, S101L, N111D
# VL: B2 VL with V2I, G26S, V29I, V45L, A59V, T62S, Y70F, I74V
# notes: Mouse IgG, kappa light chain; also called clone #54
# B4: antibody 57 (antibody, V domains shown)
# VH: B2 VH with E58D, S63P, A74D, V80I, T92S, Y95F, S101E, N111D
# VL: B2 VL with V2I, L10I, G26S, A59V, T62S, I74V
# notes: Mouse IgG, kappa light chain; also called clone #57
# B5: antibody 42 (antibody, V domains shown)
# VH: B2 VH with F24L, M34R, S63P, A74D, K83R, S101Q, N111D
# VL: LIVLTQSPAIMSASPGEKVTMTCGATSRISYMFWYQQKPGSSPRVLIYDTSNLASGVPVRFSGSGSGTSYSLTISRVEAEDVATYYCQQWNSYPLTFGAGTKLELK
# notes: Mouse IgG, kappa light chain; also called clone #42; m42
# B6: antibody 56 (antibody, V domains shown)
# VH: B2 VH with A51T, H52N, E58D, A64V, A74D, S101A, N102A, N111D
# VL: B2 VL with V2I, L10I, G26S, A54S, A59V, T62S, N91S
# notes: Mouse IgG, kappa light chain; also called clone #56
# B7: antibody 49 (antibody, V domains shown)
# VH: B2 VH with E58D, S63P, K66Q, I71V, A74D, S76A, T94I, I100V, S101G, N111A
# VL: B2 VL with V2I, L10I, G26S, V45L, A59V, T62S
# notes: Mouse IgG, kappa light chain; also called clone #49
# B8: antibody 46 (antibody, V domains shown)
# VH: QVTLKESGPGILQPSQTLSLTCSFSGFSLSTFGMGVGWIRQPSGKGLEWLAHIWWDDDNYYNQALKSRLTISKDNTKNQVFLNIANVDTADTATYYCARIRSYDYDVRYAMDYWGQGTSVTVSS
# VL: DIKMTQSPSSMYASLRERVTITCKASQDINSYLSWFQQKPGKSPKTLIYRANRLVDGVPSRFSGSGSGQDYSLTISSLEYEDLGIYYCQQYYEFPLTFGAGTRLELK
# notes: Mouse IgG, kappa light chain; also called clone #46
# Molecular target: T1, human iRhom2 (inactive rhomboid protein 2, isoform 1), endogenously expressed on human cells (human, UniProt Q6PJF5 1-856)
# T1 sequence: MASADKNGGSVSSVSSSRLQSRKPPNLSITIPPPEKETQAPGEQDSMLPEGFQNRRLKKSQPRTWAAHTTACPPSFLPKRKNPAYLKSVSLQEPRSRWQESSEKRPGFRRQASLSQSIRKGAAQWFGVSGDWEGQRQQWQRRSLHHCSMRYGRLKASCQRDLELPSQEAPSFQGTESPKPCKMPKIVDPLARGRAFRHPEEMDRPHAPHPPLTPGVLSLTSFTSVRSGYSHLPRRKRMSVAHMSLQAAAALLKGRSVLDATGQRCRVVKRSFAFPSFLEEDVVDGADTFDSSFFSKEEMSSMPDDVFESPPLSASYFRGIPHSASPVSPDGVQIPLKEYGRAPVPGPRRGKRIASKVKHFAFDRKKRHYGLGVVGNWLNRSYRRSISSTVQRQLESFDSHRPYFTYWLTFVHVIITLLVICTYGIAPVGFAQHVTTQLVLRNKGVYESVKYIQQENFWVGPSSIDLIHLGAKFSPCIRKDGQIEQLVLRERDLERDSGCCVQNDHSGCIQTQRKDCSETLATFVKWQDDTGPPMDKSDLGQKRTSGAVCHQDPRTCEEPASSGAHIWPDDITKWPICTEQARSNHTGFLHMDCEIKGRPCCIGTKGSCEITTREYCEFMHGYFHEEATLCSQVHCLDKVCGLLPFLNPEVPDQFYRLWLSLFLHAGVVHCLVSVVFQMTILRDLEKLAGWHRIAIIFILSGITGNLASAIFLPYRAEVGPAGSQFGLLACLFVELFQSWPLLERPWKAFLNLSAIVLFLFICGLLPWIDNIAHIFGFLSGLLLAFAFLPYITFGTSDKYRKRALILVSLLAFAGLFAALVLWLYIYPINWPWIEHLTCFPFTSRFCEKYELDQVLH
# Assay: cell-based or functional assay
Binder,"inhibition of LPS-induced release of TNFα from THP-1 cells, 10 µg/ml, antibody purified from hybridoma","inhibition of LPS-induced release of TNFα from THP-1 cells, recombinant antibody","inhibition of PMA-induced release of HB-EGF from THP-1 cells, 3 µg/ml",inhibition of PMA-induced release of HB-EGF from U-937 cells,"inhibition of PMA-induced release of IL-6R from THP-1 cells, 1 µg/ml","inhibition of PMA-induced release of IL-6R from U-937 cells, 1 µg/ml","inhibition of PMA-induced release of IL-6R from U-937 cells, 3 µg/ml","inhibition of PMA-induced release of TNFα from U-937 cells, 1 µg/ml","inhibition of PMA-induced release of TNFα from U-937 cells, 3 µg/ml","inhibition of LPS-induced release of TNFα from PBMCs of healthy donors, 1 µg/ml"
B1,27.3 % inhibition,73.8 % inhibition,64.2 % inhibition,98.2 % inhibition,71.1 % inhibition,69.3 % inhibition,74.6 % inhibition,68.6 % inhibition,79.9 % inhibition,–
B2,78.8 % inhibition,78.4 % inhibition,77.7 % inhibition,101 % inhibition,67.4 % inhibition,74.5 % inhibition,79 % inhibition,86.1 % inhibition,93.1 % inhibition,72.8 % inhibition
B3,–,67.9 % inhibition,–,–,–,–,–,–,–,–
B4,–,59.7 % inhibition,–,–,–,–,–,–,–,–
B5,76.7 % inhibition,75.9 % inhibition,76.6 % inhibition,104 % inhibition,85.9 % inhibition,80.8 % inhibition,84.4 % inhibition,94.5 % inhibition,94.1 % inhibition,77 % inhibition
B6,–,65.8 % inhibition,–,–,–,–,–,–,–,–
B7,–,59.9 % inhibition,–,–,–,–,–,–,–,–
B8,–,36.1 % inhibition,–,–,–,–,–,–,–,–

# Same assay, conditions: not given
Binder,inhibition of LPS-induced release of TNFα from human macrophages of healthy donors,"inhibition of PMA-induced release of HB-EGF from PBMCs of healthy donors, 1 µg/ml","inhibition of PMA-induced release of IL-6R from PBMCs of healthy donors, 1 µg/ml","inhibition of PMA-induced release of TGFα from PC3 cells, 1 µg/ml"
B2,78.8 % inhibition,56.5 % inhibition,79.3 % inhibition,12.7 % inhibition
B5,93.2 % inhibition,77.6 % inhibition,85 % inhibition,14.3 % inhibition

# Molecular target: T2, dog iRhom2 full length wild type, C-terminally tagged with 3 consecutive copies of the T7 epitope (dog, UniProt Q00M95 1-827)
# T2 construct: whole, on cells; also called Dog-iR2-FL-WT-T7
# T2 sequence: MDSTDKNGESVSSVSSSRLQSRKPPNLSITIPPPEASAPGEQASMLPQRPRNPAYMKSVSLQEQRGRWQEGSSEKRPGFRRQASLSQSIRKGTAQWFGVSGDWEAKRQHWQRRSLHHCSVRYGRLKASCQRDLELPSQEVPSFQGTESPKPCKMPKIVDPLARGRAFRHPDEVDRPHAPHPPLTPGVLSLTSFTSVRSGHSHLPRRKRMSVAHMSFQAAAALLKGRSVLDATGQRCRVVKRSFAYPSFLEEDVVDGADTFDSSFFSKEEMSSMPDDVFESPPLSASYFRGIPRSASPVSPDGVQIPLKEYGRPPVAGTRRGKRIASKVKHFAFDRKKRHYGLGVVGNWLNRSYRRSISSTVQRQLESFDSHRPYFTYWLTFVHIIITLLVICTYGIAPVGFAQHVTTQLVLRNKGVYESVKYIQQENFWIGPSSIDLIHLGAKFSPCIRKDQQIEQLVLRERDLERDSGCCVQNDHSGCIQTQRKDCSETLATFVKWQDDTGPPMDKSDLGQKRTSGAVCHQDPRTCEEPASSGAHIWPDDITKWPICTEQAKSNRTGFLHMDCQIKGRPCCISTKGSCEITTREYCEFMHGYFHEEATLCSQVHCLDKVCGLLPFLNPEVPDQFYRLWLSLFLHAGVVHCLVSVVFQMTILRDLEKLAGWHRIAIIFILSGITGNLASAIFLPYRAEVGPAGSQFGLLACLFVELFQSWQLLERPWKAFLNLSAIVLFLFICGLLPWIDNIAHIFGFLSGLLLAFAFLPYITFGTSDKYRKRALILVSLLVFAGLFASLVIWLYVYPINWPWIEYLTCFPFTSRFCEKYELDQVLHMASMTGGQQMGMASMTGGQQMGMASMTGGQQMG
# Assay: FACS, MEF-DKO-Dog-iR2-FL-WT-T7 cells
# Experimental: In brief, immortalized MEF-DKO-EV control cells, MEF-DKO-rhesus-iR2-FL-WT-T7 cells, MEF-DKO-cyno-iR2-FL-WT-T7 cells, MEF-DKO-dog-iR2-FL-WT-T7 cells and MEF-DKO-rabbit-iR2-FL-WT-T7 cells, as well as their respective iRhom1 counterparts, were harvested with 10 mM EDTA in PBS, washed and resuspended in FACS buffer (PBS, 3% FBS, 0.05% sodium azide), and seeded in Nunc U-bottom 96-well plates (Thermo Fisher Scientific, USA) at approximately 3×10⁵ cells per well. To pellet cells and remove supernatants, the plates were centrifuged at 1,500 rpm and 4° C. for 3 minutes. For primary staining, cells were resuspended in 100 μl per well of either FACS buffer alone (controls), mouse monoclonal anti-T7 IgG (Merck Millipore, USA) at 3 μg/ml FACS buffer or the antibodies of the present disclosure also at 3 μg/ml FACS buffer and incubated on ice for 1 hour. Afterwards, plates were centrifuged at 1,500 rpm and 4° C. for 3 minutes and washed twice with 200 μl per well of FACS buffer. For secondary staining, cells were spun down and resuspended in 100 μl per well of PE-conjugated goat anti-mouse IgG F(ab′)2 detection fragment (Dianova, Germany) diluted 1:100 in FACS buffer. Protected from light, the cell suspensions were incubated on ice for 1 hour. Plates were then centrifuged at 1,500 rpm and 4° C. for 3 minutes and washed three times with 200 μl per well of FACS buffer. Finally, cells were resuspended in 150 μl per well of FACS buffer and analyzed using a BD Accuri™ C6 Plus flow cytometer (Becton Dickinson, Germany).
row,Binder,binding result
1,B1,binds
2,B2,binds
3,B3,binds
4,B4,binds
5,B5,binds
6,B6,binds
7,B7,binds
8,B8,binds
